Literature values, collected in PMC10743670.
Read-outs that look alike come from different tables or passages of the source.

Key:
[1] = biological target: Asp97 (UniProt position 97, VFRYIDWLLTV); details: ground state
[2] = biological target: Asp85 (UniProt position 85, EIRYIDWLVTT); details: ground state
[3] = biological target: Asp85 (UniProt position 98, WAQYADWLFTT); details: ground state of the R82Q mutant
[4] = biological target: T1, Asp85 (UniProt position 98, WARYADWLFTT); details: ground (unphotolysed) state of bacteriorhodopsin; purple-to-blue transition
[5] = biological target: T1, Asp85; experiment: other (described only as 'a titration of bacteriorhodopsin'); details: bacteriorhodopsin with the proton release group deprotonated

Substance: Proteorhodopsin (PR) (uncultured marine gamma-proteobacterium (printed as 'marine γ-proteobacteria'))
- pKa [1]: ∼7.0

Substance: Exiguobacterium sibiricum rhodopsin (ESR) (Exiguobacterium sibiricum)
- pKa [2]: <2

Substance: Bacteriorhodopsin R82Q mutant (Halobacterium salinarum (printed as Halobacterium halobium); R82Q)
- pKa [3]: ≈7.5

Substance: Bacteriorhodopsin (bR) (Halobacterium salinarum (printed as Halobacterium halobium))
- pKa [4]: ≈2.7
- pKa [5]: ≈7.5

Substance: Exiguobacterium sibiricum rhodopsin (ESR) H57M mutant (Exiguobacterium sibiricum; H57M)
- pKa [2]: 6.3
